Measurements from the RNAGym collection of RNA variant scans (doi:10.1021/acssynbio.7b00057).

B1: Pistol ribozyme (parent)
chain: GGGUCGUUGUUCCAUAAUCGCGUGGAUAUGGCACGCAAGUUUCUACCGGGCACCGUAAAUGUCCGACUGGAGCCGUUCGGGCGGCUAUAAACAGACCUCAGGCCCGAAGCGUGGCGGCACCUGCCGCCGGUGGUAAAAAAGAUCGGAAGAGCACACGUCU

Variants of: B1
Assay: aptazyme ON/OFF ratio, guanine; higher = stronger switching; co-transcriptional cleavage with and without guanine

Row | Variant | aptazyme ON/OFF ratio
1 | U8C G9U U11C C12A | 1.12
2 | U8C U10A U11C C12A C13A | 1.11
3 | U8C U10A U11C C12A C13G | 1.07
4 | U8C U10A U11C C12A C13U | 1.08
5 | U8C G9U U10C U11C C13A | 1.03
6 | U8C G9U U10C U11C C13G | 1.02
7 | U8C G9U U10C U11C C13U | 1.04
8 | U8C G9U U10A U11C C13G | 1.06
9 | U8C G9U U10A U11C C13U | 1.02
10 | U8C G9U U10A U11C C13A | 1.09
11 | U8C G9U U11A C13U | 1.33
12 | U8C G9U U11A C13A | 1.27
13 | U8C G9U U11A C13G | 1.03
14 | U8C G9U U10C C12U | 1.05
15 | U8C G9U U10C C12A | 1.19
16 | U8C G9U U10C C12G | 1.26
17 | U8C G9U U10G U11G C12G C13G | 1.1
18 | U8C G9U U10G U11G C12G C13U | 1.26
19 | U8C G9U U10G U11G C12G C13A | 1.14
20 | U8C G9U U10C U11A C12G | 1.17
21 | U8C G9U U10C U11A C12A | 1.15

Row | Variant | aptazyme ON/OFF ratio
22 | U8C G9U U10C U11A C12U | 1.17
23 | U8C U10C U11A C12A C13A | 1.35
24 | U8C U10C U11A C12A C13G | 1.14
25 | U8C U10C U11A C12A C13U | 1.25
26 | U8C U10C C12U | 2.98
27 | U8C U10C C12A | 1.34
28 | U8C U10C C12G | 1.29
29 | U8C G9U U10C U11C C12G | 1.09
30 | U8C G9U U10C U11C C12U | 1.06
31 | U8C G9U U10C U11C C12A | 1.03
32 | U8C U10C U11A C12G C13U | 1.24
33 | U8C U10C U11A C12G C13G | 1.24
34 | U8C U10C U11A C12G C13A | 1.2
35 | U8C G9U U11C C12A C13U | 1.18
36 | U8C G9U U11C C12A C13G | 1.04
37 | U8C G9U U11C C12A C13A | 1.11
38 | U8C G9U U11C C13A | 1.03
39 | U8C G9U U11C C13G | 1.03
40 | U8C G9U U11C C13U | 1.01
41 | U8C G9U U10C U11G C12G C13U | 1.07
42 | U8C G9U U10C U11G C12G C13G | 1.15

Row | Variant | aptazyme ON/OFF ratio
43 | U8C G9U U10C U11G C12G C13A | 1.11
44 | U8C G9U U11C C12U C13U | 1.1
45 | U8C G9U U11C C12U C13A | 1.04
46 | U8C G9U U11C C12U C13G | 1.04
47 | U8C G9U U10G U11A C12A | 1.56
48 | U8C G9U U10G U11A C12U | 1.04
49 | U8C G9U U10G U11A C12G | 1.22
50 | U8C G9U U10C C12U C13G | 1.07
51 | U8C G9U U10C C12U C13U | 1.16
52 | U8C G9U U10C C12U C13A | 1.06
53 | U8C G9U U10C C13G | 1.04
54 | U8C G9U U10C C13A | 1.03
55 | U8C G9U U10C C13U | 1.27
56 | U8C U10C U11C C12G C13A | 1.29
57 | U8C U10C U11C C12G C13U | 1.3
58 | U8C U10C U11C C12G C13G | 1.35
59 | U8C G9U U11G C12G C13U | 1.09
60 | U8C G9U U11G C12G C13G | 1.1
61 | U8C G9U U11G C12G C13A | 1.19
62 | U8C U10C U11C C12U C13G | 1.26
63 | U8C U10C U11C C12U C13A | 1.23

Row | Variant | aptazyme ON/OFF ratio
64 | U8C U10C U11C C12U C13U | 1.28
65 | U8C U10C U11G C12U C13G | 1.28
66 | U8C U10C U11G C12U C13U | 1.46
67 | U8C U10C U11G C12U C13A | 1.26
68 | U8C G9U U10A U11G C12A | 1.07
69 | U8C G9U U10A U11G C12G | 1.23
70 | U8C G9U U10A U11G C12U | 1.43
71 | U8C G9U U10A U11G | 1.74
72 | U8C U10C U11A C13U | 1.28
73 | U8C U10C U11A C13G | 1.23
74 | U8C U10C U11A C13A | 1.32
75 | U8C G9U U10C U11G | 1.33
76 | U8C G9U U10C U11C | 1.05
77 | U8C G9U U10C U11A | 1.44
78 | U8C G9U U11G C12U C13A | 1.16
79 | U8C G9U U11G C12U C13G | 1.15
80 | U8C G9U U11G C12U C13U | 1.14
81 | U8C G9U U10G U11G C12A C13A | 1.14
82 | U8C G9U U10G U11G C12A C13U | 1.17
83 | U8C G9U U10G U11G C12A C13G | 1.07
